Assays:
HeLa Kyoto [1] = experiment: solubility in G1/S (NP-40 vs SDS abundance) (log2 ratio); higher = more soluble; conditions: cell cycle stage: G1/S
HeLa Kyoto [2] = experiment: solubility change mitosis vs G1/S (difference of NP-40 vs SDS log2 ratios) (log2 ratio difference); higher = more soluble in mitosis
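Throughout, for solubility change mitosis vs G1/S (difference of NP-40 vs SDS log2 ratios): synchronized HeLa Kyoto cells (double thymidine block for G1/S, nocodazole release for mitosis), protein amounts in NP-40 versus SDS lysates quantified by mass spectrometry, three biological replicates.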
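Throughout, for solubility in G1/S (NP-40 vs SDS abundance): HeLa Kyoto cells arrested at G1/S by double thymidine block, proteins quantified by TMT10plex mass spectrometry in mild NP-40 versus SDS extracts, three biological replicates.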

Sequence	solubility in G1/S (log2) (HeLa Kyoto [1])	solubility change mitosis (log2) (HeLa Kyoto [2])
MSDIVEKTLTALPGLFLQNQPGGGPAAAKASFSSRLGSLVRGITALTSKHEEEKLIQQELSSLKATVSAPTTTLKMMKECMVRLIYCEMLGYDASFGYIHAIKLAQQGNLLEKRVGYLAVSLFLHESHELLLLLVNTVVKDLQSTNLVEVCMALTVVSQIFPCEMIPAVLPLIEDKLQHSKEIVRRKAVLALYKFHLIAPNQVQHIHIKFRKALCDRDVGVMAASLHIYLRMIKENSSGYKDLTGSFVTILKQVVGGKLPVEFNYHSVPAPWLQIQLLRILGLLGKDDQRTSELMYDVLDESLRRAELNHNVTYAILFECVHTVYSIYPKSELLEKAAKCIGKFVLSPKINLKYLGLKALTYVIQQDPTLALQHQMTIIECLDHPDPIIKRETLELLYRITNAQNITVIVQKMLEYLHQSKEEYVIVNLVGKIAELAEKYAPDNAWFIQTMNAVFSVGGDVMHPDIPNNFLRLLAEGFDDETEDQQLRLYAVQSYLTLLDMENVFYPQRFLQVMSWVLGEYSYLLDKETPEEVIAKLYKLLMNDSVSSETKAWLIAAVTKLTSQAHSSNTVERLIHEFTISLDTCMRQHAFELKHLHENVELMKSLLPVDRSCEDLVVDASLSFLDGFVAEGLSQGAAPYKPPHQRQEEKLSQEKVLNFEPYGLSFSSSGFTGRQSPAGISLGSDVSGNSAETGLKETNSLKLEGIKKLWGKEGYLPKKESKTGDESGALPVPQESIMENVDQAITKKDQSQVLTQSKEEKEKQLLASSLFVGLGSESTINLLGKADTVSHKFRRKSKVKEAKSGETTSTHNMTCSSFSSLSNVAYEDDYYSNTLHDTGDKELKKFSLTSELLDSESLTELPLVEKFSYCSLSTPSLFANNNMEIFHPPQSTAASVAKESSLASSFLEETTEYIHSNAMEVCNNETISVSSYKIWKDDCLLMVWSVTNKSGLELKSADLEIFPAENFKVTEQPGCCLPVMEAESTKSFQYSVQIEKPFTEGNLTGFISYHMMDTHSAQLEFSVNLSLLDFIRPLKISSDDFGKLWLSFANDVKQNVKMSESQAALPSALKTLQQKLRLHIIEIIGNEGLLACQLLPSIPCLLHCRVHADVLALWFRSSCSTLPDYLLYQCQKVMEGS [AP4E1]	-0.402	-0.0567
MSEESDSLRTSPSVASLSENELPPPPEPPGYVCSLTEDLVTKAREELQEKPEWRLRDVQALRDMVRKEYPNLSTSLDDAFLLRFLRARKFDYDRALQLLVNYHSCRRSWPEVFNNLKPSALKDVLASGFLTVLPHTDPRGCHVVCIRPDRWIPSNYPITENIRAIYLTLEKLIQSEETQVNGIVILADYKGVSLSKASHFGPFIAKKVIGILQDGFPIRIKAVHVVNEPRIFKGIFAIIKPFLKEKIANRFFLHGSDLNSLHTNLPRSILPKEYGGTAGELDTATWNAVLLASEDDFVKEFCQPVPACDSILGQTLLPEGLTSDAQCDDSLRAVKSQLYSCY [TTPAL]	0.206	-0.0202
MSFAESGWRSALRRRGPGTPGPVARPSYSSFTQGDSWGEGEVDEEEGCDQVARDLRAEFSAGAWSEPRKRSVLPPDGNGSPVLPDKRNGIFPAAAGSRAQPRRWPVQVLSILCSLLFAILLAFLLAIAYLIVKELHAENLKNEDDVDTGLLGFWTLLIISLTAGFSCCSFSWTVTYFDSFEPGMFPPTPLSPARFKKLTGHSFHMGYSMAILNGIVAALTVAWCLM [ARL6IP6]	-0.241	0.698
MSGEPELIELRELAPAGRAGKGRTRLERANALRIARGTACNPTRQLVPGRGHRFQPAGPATHTWCDLCGDFIWGVVRKGLQCARLSADCKFTCHYRCRALVCLDCCGPRDLGWEPAVERDTNVDEPVEWETPDLSQAEIEQKIKEYNAQINSNLFMSLNKDGSYTGFIKVQLKLVRPVSVPSSKKPPSLQDARRGPGRGTSVRRRTSFYLPKDAVKHLHVLSRTRAREVIEALLRKFLVVDDPRKFALFERAERHGQVYLRKLLDDEQPLRLRLLAGPSDKALSFVLKENDSGEVNWDAFSMPELHNFLRILQREEEEHLRQILQKYSYCRQKIQEALHACPLG [RASSF1]	0.0141	0.0429
MSGGEVVCSGWLRKSPPEKKLKRYAWKRRWFVLRSGRLTGDPDVLEYYKNDHAKKPIRIIDLNLCQQVDAGLTFNKKEFENSYIFDINTIDRIFYLVADSEEEMNKWVRCICDICGFNPTEEDPVKPPGSSLQAPADLPLAINTAPPSTQADSSSATLPPPYQLINVPPHLETLGIQEDPQDYLLLINCQSKKPEPTRTHADSAKSTSSETDCNDNVPSHKNPASSQSKHGMNGFFQQQMIYDSPPSRAPSASVDSSLYNLPRSYSHDVLPKVSPSSTEADGELYVFNTPSGTSSVETQMRHVSISYDIPPTPGNTYQIPRTFPEGTLGQTSKLDTIPDIPPPRPPKPHPAHDRSPVETCSIPRTASDTDSSYCIPTAGMSPSRSNTISTVDLNKLRKDASSQDCYDIPRAFPSDRSSSLEGFHNHFKVKNVLTVGSVSSEELDENYVPMNPNSPPRQHSSSFTEPIQEANYVPMTPGTFDFSSFGMQVPPPAHMGFRSSPKTPPRRPVPVADCEPPPVDRNLKPDRKVKPAPLEIKPLPEWEELQAPVRSPITRSFARDSSRFPMSPRPDSVHSTTSSSDSHDSEENYVPMNPNLSSEDPNLFGSNSLDGGSSPMIKPKGDKQVEYLDLDLDSGKSTPPRKQKSSGSGSSVADERVDYVVVDQQKTLALKSTREAWTDGRQSTESETPAKSVK [GAB1]	0.368	-0.296
MSGGLAPSKSTVYVSNLPFSLTNNDLYRIFSKYGKVVKVTIMKDKDTRKSKGVAFILFLDKDSAQNCTRAINNKQLFGRVIKASIAIDNGRAAEFIRRRNYFDKSKCYECGESGHLSYACPKNMLGEREPPKKKEKKKKKKAPEPEEEIEEVEESEDEGEDPALDSLSQAIAFQQAKIEEEQKKWKPSSGVPSTSDDSRRPRIKKSTYFSDEEELSD [ZCRB1]	0.0915	0.122
MSGSCAAPGPGSGSSPAACRFAHYFVLCGIDADSGLEPDELAGENFDQSPLRRTFKSKVLAHYPQNIEWNPFDQDAVNMLCMPKGLSFRTQTDNKDPQFHSFIITREDGSRTYGFVLTFYEEVTSKQICTAMQTLYQMHNAEHYSSVYASSSCSMDSLASSLDEGDTTSLLKLQRYNSYDISRDTLYVSKSICLITPLPFMQACKKFLIQLYKAVTSQQPPPLPLESYIHNILYEVPLPPPGRSLKFYGVYEPVICQRPGPSELPLSDYPLREAFELLGLENLVQVFTCVLLEMQILLYSQDYQRLMTVAEGITTLLFPFQWQHVYVPILPASLLHFLDAPVPYLMGLQSKEGTDRSKLELPQEANLCFVDIDNHFIELPEEFPQFPNKVDFIQELSEVLVQFGIPPEGSLHCSESTSKLKNMVLKDLVNDKKNGNVCTNNISMYELLKGNETIARLQALAKRTGVAVEKMDLSASLGEKDKDLKLHCEEAELRDYQLNVQLREVFANRFTQMFADYEAFVIQTAQDMESWLTNREQMQNFDKASFLSDQPEPYLPFLSRFIETQMFATFIDNKIMSQWEEKDPLLRVFDTRIDKIRLYNVRAPTLRTSIYQKCSTLKEAAQSIEQRLMKMDHTAIHPHLLDMKIGQGKYEQGFFPKLQSDVLATGPTSNNRWVSRSATAQRRKERLRQHSEHVGLDNDLREKYMQEARSLGKNLRQPKLSDLSPAVIAQTNCKFVEGLLKECRMKTKRMLVEKMGHEAVELGHGEANITGLEENTLIASLCDLLERIWSHGLQVKQGKSALWSHLIQFQDREEKQEHLAESPVALGPERRKSDSGVMLPTLRVSLIQDMRHIQNMSEIKTDVGRARAWIRLSLEKKLLSQHLKQLLSNQPLTKKLYKRYAFLRCEEEREQFLYHLLSLNAVDYFCFTSVFTTIMIPYRSVIIPIKKLSNAIITSNPWICVSGELGDTGVMQIPKNLLEMTFECQNLGKLTTVQIGHDNSGLLAKWLVDCVMVRNEITGHTYRFPCGRWLGKGIDDGSLERILIGELMTSASDEDLVKQCRTPPQQKSPTTARRLSITSLTGKNNKPNAGQIQEGIGEAVNNIVKHFHKPEKERGSLTVLLCGENGLVAALEQVFHHGFKSARIFHKNVFIWDFIEKVVAYFETTDQILDNEDDVLIQKSSCKTFCHYVNAINTAPRNIGKDGKFQILVCLGTRDRLLPQWIPLLAECPAITRMYEESALLRDRMTVNSLIRILQTIQDFTIVLEGSLIKGVDV [DENND5B]	-0.149	-0.179
MSGSHTPACGPFSALTPSIWPQEILAKYTQKEESAEQPEFYYDEFGFRVYKEEGDEPGSSLLANSPLMEDAPQRLRWQAHLEFTHNHDVGDLTWDKIAVSLPRSEKLRSLVLAGIPHGMRPQLWMRLSGALQKKRNSELSYREIVKNSSNDETIAAKQIEKDLLRTMPSNACFASMGSIGVPRLRRVLRALAWLYPEIGYCQGTGMVAACLLLFLEEEDAFWMMSAIIEDLLPASYFSTTLLGVQTDQRVLRHLIVQYLPRLDKLLQEHDIELSLITLHWFLTAFASVVDIKLLLRIWDLFFYEGSRVLFQLTLGMLHLKEEELIQSENSASIFNTLSDIPSQMEDAELLLGVAMRLAGSLTDVAVETQRRKHLAYLIADQGQLLGAGTLTNLSQVVRRRTQRRKSTITALLFGEDDLEALKAKNIKQTELVADLREAILRVARHFQCTDPKNCSVELTPDYSMESHQRDHENYVACSRSHRRRAKALLDFERHDDDELGFRKNDIITIVSQKDEHCWVGELNGLRGWFPAKFVEVLDERSKEYSIAGDDSVTEGVTDLVRGTLCPALKALFEHGLKKPSLLGGACHPWLFIEEAAGREVERDFASVYSRLVLCKTFRLDEDGKVLTPEELLYRAVQSVNVTHDAVHAQMDVKLRSLICVGLNEQVLHLWLEVLCSSLPTVEKWYQPWSFLRSPGWVQIKCELRVLCCFAFSLSQDWELPAKREAQQPLKEGVRDMLVKHHLFSWDVDG [SGSM3]	-0.177	0.011
MSKQQPTQFINPETPGYVGFANLPNQVHRKSVKKGFEFTLMVVGESGLGKSTLINSLFLTDLYPERVIPGAAEKIERTVQIEASTVEIEERGVKLRLTVVDTPGYGDAINCRDCFKTIISYIDEQFERYLHDESGLNRRHIIDNRVHCCFYFISPFGHGLKPLDVAFMKAIHNKVNIVPVIAKADTLTLKERERLKKRILDEIEEHNIKIYHLPDAESDEDEDFKEQTRLLKASIPFSVVGSNQLIEAKGKKVRGRLYPWGVVEVENPEHNDFLKLRTMLITHMQDLQEVTQDLHYENFRSERLKRGGRKVENEDMNKDQILLEKEAELRRMQEMIARMQAQMQMQMQGGDGDGGALGHHV [SEPT2]	0.276	-0.0125

Reference: the supplement of paper PMC5998384
